According to PMC9400301:
Where two headings read alike, the source gives them in different places.

Columns and labels:
[1] = target: Tva fused with HA tag and the human IgG-Fc fragment (pCAGGS-Tva-HA-Fc); experiment: co-IP with grey value analysis; details: parent: est. 1.0; read off a plot
[2] = target: Tva fused with HA tag and the human IgG-Fc fragment (pCAGGS-Tva-HA-Fc)
[3] = target: Tva fused with HA tag and the human IgG-Fc fragment (pCAGGS-Tva-HA-Fc); remark: listed apart in the source
[4] = target: Tva fused with HA tag and the human IgG-Fc fragment (pCAGGS-Tva-HA-Fc); remark: listed apart in the source

Substance “ALV-A gp85 wt (soluble gp85 of ALV-A RSA, pCAGGS-s-gp85-flag) A270del” has a ratio to parent [1] of 0.93.
Work on “soluble recombinant ALV-A gp85 328_329insP (domain or fragment)” yielded a competitive blocking test: percent GFP-positive DF-1 cells after incubation with the concentrated soluble gp85 and infection with RCASBP(A)-EGFP [2] of 12.5%.
“recombinant ALV-A gp85 R274V (domain or fragment)” gave a competitive blocking test: percent GFP-positive DF-1 cells after incubation with the concentrated soluble gp85 and infection with RCASBP(A)-EGFP [3] of 9.5%.
“soluble recombinant chimeric protein gp85 s8 (ALV-A gp85 with segment s8, residues 269-275, replaced by that of ALV-K) (domain or fragment)” was tested, and the competitive blocking test: percent GFP-positive DF-1 cells after incubation with the concentrated soluble gp85 and infection with RCASBP(A)-EGFP [4] was 11%.
With ALV-A gp85 I326T (domain or fragment) the competitive blocking test: percent GFP-positive DF-1 cells after incubation with the concentrated soluble gp85 and infection with RCASBP(A)-EGFP [2] was 4.5%.
Substance ALV-A gp85 G324P (domain or fragment) has a competitive blocking test: percent GFP-positive DF-1 cells after incubation with the concentrated soluble gp85 and infection with RCASBP(A)-EGFP [2] of 5.5%.
Substance “ALV-A gp85 wt (soluble gp85 of ALV-A RSA, pCAGGS-s-gp85-flag) N269del” has a ratio to parent [1] of 0.91.
Work on “ALV-A gp85 wt (soluble gp85 of ALV-A RSA, pCAGGS-s-gp85-flag) 328_329insP” yielded a ratio to parent [1] of 0.71.
